B1: Protein BRASSINOSTEROID … 1 (Arabidopsis thaliana (Mouse-ear cress)), O22476 (parent)
chain: MKTFSSFFLSVTTLFFFSFFSLSFQASPSQSLYREIHQLISFKDVLPDKNLLPDWSSNKNPCTFDGVTCRDDKVTSIDLSSKPLNVGFSAVSSSLLSLTGLESLFLSNSHINGSVSGFKCSASLTSLDLSRNSLSGPVTTLTSLGSCSGLKFLNVSSNTLDFPGKVSGGLKLNSLEVLDLSANSISGANVVGWVLSDGCGELKHLAISGNKISGDVDVSRCVNLEFLDVSSNNFSTGIPFLGDCSALQHLDISGNKLSGDFSRAISTCTELKLLNISSNQFVGPIPPLPLKSLQYLSLAENKFTGEIPDFLSGACDTLTGLDLSGNHFYGAVPPFFGSCSLLESLALSSNNFSGELPMDTLLKMRGLKVLDLSFNEFSGELPESLTNLSASLLTLDLSSNNFSGPILPNLCQNPKNTLQELYLQNNGFTGKIPPTLSNCSELVSLHLSFNYLSGTIPSSLGSLSKLRDLKLWLNMLEGEIPQELMYVKTLETLILDFNDLTGEIPSGLSNCTNLNWISLSNNRLTGEIPKWIGRLENLAILKLSNNSFSGNIPAELGDCRSLIWLDLNTNLFNGTIPAAMFKQSGKIAANFIAGKRYVYIKNDGMKKECHGAGNLLEFQGIRSEQLNRLSTRNPCNITSRVYGGHTSPTFDNNGSMMFLDMSYNMLSGYIPKEIGSMPYLFILNLGHNDISGSIPDEVGDLRGLNILDLSSNKLDGRIPQAMSALTMLTEIDLSNNNLSGPIPEMGQFETFPPAKFLNNPGLCGYPLPRCDPSNADGYAHHQRSHGRRPASLAGSVAMGLLFSFVCIFGLILVGREMRKRRRKKEAELEMYAEGHGNSGDRTANNTNWKLTGVKEALSINLAAFEKPLRKLTFADLLQATNGFHNDSLIGSGGFGDVYKAILKDGSAVAIKKLIHVSGQGDREFMAEMETIGKIKHRNLVPLLGYCKVGDERLLVYEFMKYGSLEDVLHDPKKAGVKLNWSTRRKIAIGSARGLAFLHHNCSPHIIHRDMKSSNVLLDENLEARVSDFGMARLMSAMDTHLSVSTLAGTPGYVPPEYYQSFRCSTKGDVYSYGVVLLELLTGKRPTDSPDFGDNNLVGWVKQHAKLRISDVFDPELMKEDPALEIELLQHLKVAVACLDDRAWRRPTMVQVMAMFKEIQAGSGIDSQSTIRSIEDGGFSTIEMVDMSIKEVPEGKL
partner: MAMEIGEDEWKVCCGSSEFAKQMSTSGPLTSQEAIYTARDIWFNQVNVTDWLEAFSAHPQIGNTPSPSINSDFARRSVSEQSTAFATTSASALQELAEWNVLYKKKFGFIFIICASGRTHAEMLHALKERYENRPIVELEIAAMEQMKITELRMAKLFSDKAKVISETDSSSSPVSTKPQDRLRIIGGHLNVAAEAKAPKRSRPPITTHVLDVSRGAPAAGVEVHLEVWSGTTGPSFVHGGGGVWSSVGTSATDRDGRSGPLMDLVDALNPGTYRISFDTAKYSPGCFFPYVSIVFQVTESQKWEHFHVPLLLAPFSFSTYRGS

Assays:
tthl_arath TTL, Q9LVM5 [1] = variants of: B1; details: with tthl_arath TTL
tthl_arath TTL, Q9LVM5 [2] = variants of: B1; details: with tthl_arath TTL; remark: listed apart in the source

Row | Variant | effect of a mutation on the interaction (tthl_arath TTL, Q9LVM5 [1]) | effect of a mutation on the interaction (tthl_arath TTL, Q9LVM5 [2])
1 | E1078K | decreasing interaction | disrupting interaction
2 | G1048D | decreasing interaction | disrupting interaction
3 | A1031T |  | disrupting interaction

From IntAct's records for PubMed 15319482
